Data from PMC3382596, “A Phthalimide Derivative That Inhibits Centrosomal Clustering Is Effective on Multiple Myeloma” (PLoS ONE, 2012).

Target: the molecule itself
Test: SEC; gel filtration of recombinant NPM(1-183) from E. coli to separate oligomeric and monomeric forms; fractions checked by SDS-PAGE with CBB staining

B1: Recombinant NPM(1-183), the 183 NH2-terminal amino acids of nucleophosmin 1 (domain or fragment, human, UniProt P06748 1-183, looked up)
chain: MEDSMDMDMSPLRPQNYLFGCELKADKDYHFKVDNDENEHQLSLRTVSLGAGAKDELHIVEAEAMNYEGSPIKVTLATLKMSVQPTVSLGGFEITPPVVLRLKCGSGPVHISGQHLVAVEEDAESEDEEEEDVKLLSISGKRSAPGGGSKVPQKKVKLAADEDDDDDDEEDDDEDDDDDDFDD
notes: nucleophosmin 1 (NPM/B23), clone from a cDNA library of the human multiple myeloma cell line KMS34; also called NPM/B23; 1-183 NPM; source: E. coli, partially purified, fractionated by gel filtration
  binding result: binds
